Here are results for 4 molecules from patent publication US20100249372A1 (WISCONSIN ALUMNI RESEARCH FOUNDATION, published 2010).

The target in one experiment is T1, Botulinum neurotoxin B (Clostridium botulinum, UniProt P10844 2-1291).
T1 sequence: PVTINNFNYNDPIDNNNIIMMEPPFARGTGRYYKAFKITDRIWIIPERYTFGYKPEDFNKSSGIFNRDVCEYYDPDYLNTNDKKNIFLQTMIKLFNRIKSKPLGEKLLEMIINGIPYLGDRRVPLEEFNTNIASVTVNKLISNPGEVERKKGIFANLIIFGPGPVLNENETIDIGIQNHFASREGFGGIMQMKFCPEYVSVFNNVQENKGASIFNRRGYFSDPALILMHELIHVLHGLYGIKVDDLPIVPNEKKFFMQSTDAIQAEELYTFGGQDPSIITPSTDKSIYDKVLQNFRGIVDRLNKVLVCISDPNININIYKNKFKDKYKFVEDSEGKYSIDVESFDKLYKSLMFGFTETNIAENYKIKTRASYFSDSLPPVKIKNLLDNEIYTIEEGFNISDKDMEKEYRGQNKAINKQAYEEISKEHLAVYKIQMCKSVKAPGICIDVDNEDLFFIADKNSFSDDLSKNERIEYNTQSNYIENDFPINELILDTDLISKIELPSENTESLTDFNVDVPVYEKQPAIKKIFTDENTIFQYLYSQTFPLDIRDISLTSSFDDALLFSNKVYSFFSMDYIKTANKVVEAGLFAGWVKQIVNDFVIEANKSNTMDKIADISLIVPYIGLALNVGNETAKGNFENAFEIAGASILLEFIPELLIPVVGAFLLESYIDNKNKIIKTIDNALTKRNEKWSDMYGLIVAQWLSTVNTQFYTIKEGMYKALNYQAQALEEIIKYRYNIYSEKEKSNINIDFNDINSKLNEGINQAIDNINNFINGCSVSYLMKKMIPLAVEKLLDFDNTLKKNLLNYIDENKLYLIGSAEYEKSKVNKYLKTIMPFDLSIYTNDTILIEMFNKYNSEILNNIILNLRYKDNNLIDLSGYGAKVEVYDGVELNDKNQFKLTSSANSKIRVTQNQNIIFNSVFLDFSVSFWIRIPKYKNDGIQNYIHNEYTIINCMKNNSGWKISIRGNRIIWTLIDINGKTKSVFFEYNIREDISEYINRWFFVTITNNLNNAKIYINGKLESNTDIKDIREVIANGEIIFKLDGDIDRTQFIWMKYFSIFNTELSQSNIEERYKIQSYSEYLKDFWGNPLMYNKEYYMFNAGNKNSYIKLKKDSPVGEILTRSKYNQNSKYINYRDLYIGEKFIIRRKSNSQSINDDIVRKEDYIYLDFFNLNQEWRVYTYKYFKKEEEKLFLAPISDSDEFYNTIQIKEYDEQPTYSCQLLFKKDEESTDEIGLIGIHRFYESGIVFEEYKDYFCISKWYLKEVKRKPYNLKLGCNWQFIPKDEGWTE
As to the kind of experiment: pull-down with immobilised GST-L4 (8 µg), western blot. (In general: A western blot detects proteins with antibodies after separation by electrophoresis.)

The target in a further experiment is T2, Botulinum neurotoxin E (Clostridium botulinum, UniProt Q00496 2-1251).
T2 sequence: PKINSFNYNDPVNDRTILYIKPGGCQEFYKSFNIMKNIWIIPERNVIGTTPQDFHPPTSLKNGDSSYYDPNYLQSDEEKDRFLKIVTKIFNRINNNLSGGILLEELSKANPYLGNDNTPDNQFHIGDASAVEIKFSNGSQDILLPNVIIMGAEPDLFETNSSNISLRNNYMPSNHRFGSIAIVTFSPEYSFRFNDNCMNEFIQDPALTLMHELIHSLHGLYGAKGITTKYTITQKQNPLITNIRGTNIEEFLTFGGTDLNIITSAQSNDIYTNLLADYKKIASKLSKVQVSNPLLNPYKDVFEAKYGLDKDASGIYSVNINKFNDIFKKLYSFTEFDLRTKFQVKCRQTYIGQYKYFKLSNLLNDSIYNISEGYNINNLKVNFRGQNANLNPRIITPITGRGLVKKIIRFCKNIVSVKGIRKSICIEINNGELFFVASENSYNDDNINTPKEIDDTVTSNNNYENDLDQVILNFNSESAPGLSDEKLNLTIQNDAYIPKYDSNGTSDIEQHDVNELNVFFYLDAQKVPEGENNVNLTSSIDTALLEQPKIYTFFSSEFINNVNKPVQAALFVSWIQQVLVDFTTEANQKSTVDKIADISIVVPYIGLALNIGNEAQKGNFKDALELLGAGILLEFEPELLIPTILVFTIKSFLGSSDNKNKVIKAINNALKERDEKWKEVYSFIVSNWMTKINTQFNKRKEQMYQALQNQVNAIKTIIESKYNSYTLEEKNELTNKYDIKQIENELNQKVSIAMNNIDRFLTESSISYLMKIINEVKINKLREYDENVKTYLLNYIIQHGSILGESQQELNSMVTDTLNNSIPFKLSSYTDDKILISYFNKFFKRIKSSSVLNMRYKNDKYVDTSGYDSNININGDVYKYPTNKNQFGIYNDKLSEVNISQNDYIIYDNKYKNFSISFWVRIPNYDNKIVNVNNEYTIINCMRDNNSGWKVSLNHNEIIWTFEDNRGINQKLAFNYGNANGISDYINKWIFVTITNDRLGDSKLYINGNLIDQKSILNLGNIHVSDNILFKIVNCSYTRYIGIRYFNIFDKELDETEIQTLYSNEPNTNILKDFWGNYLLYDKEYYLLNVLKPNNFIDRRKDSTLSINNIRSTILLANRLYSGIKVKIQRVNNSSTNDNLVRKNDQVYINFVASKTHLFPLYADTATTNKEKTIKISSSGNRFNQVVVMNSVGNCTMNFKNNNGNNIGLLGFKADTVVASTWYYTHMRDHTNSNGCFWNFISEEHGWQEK
Described as above.

Another experiment deals with Botulinum neurotoxin A (Clostridium botulinum, UniProt P0DPI1 2-1296). Kind of experiment: immunostaining of transfected SV2A/B double knockout hippocampal neurons.

B1: GST-tagged 4th luminal domain (L4) of rat SV2B (other)
chain: FPDMIRYFQDEEYKSKMKVFFGEHVHGATINFTMENQIHQHGKLVNDKFIKMYFKHVLFEDTFFDKCYFEDVTSTDTYFKNCTIESTTFYNTDLYKHKFIDCRFINSTFLEQKEGCHMDFEEDNDF
B1: the binding result with Botulinum neurotoxin B and in the experiment with Botulinum neurotoxin E was “no binding (tested: 100 nM)” in each case.

B2: GST-tagged 4th luminal domain (L4) of rat SV2C (other)
chain: FPDVIKHLQSDEYALLTRNVQKDKYANFSINFTMENQVHTGMEYDNGRFLGVKFKSVTFKDSVFKSCTFDDVTSVNTYFKNCTFIDTLFENTDFEPYKFIDSEFQNCSFLHNKTGCQITFDDDYSAY
B2: the binding result in the experiment with Botulinum neurotoxin B and in the experiment with Botulinum neurotoxin E was “no binding (tested: 100 nM)” throughout.

B3: GST-tagged 4th luminal domain (L4) of rat SV2A (other)
chain: FPDMIRHLQAVDYAARTKVFPGERVEHVTFNFTLENQIHRGGQYFNDKFIGLRLKSVSFEDSLFEECYFEDVTSSNTFFRNCTFINTVFYNTDLFEYKFVNSRLVNSTFLHNKEGCPLDVTGTGEGAY
For the molecule B3, the binding result with Botulinum neurotoxin B and with Botulinum neurotoxin E was “no binding (tested: 100 nM)” each time.

B4: synaptotagmin I (other)
chain: MVSASHPEALAAPVTTVATLVPHNATEPASPGEGKEDAFSKLKQKFMNELHKIPLPPWALIAIAIVAVLLVVTCCFCVCKKCLFKKKNKKKGKEKGGKNAINMKDVKDLGKTMKDQALKDDDAETGLTDGEEKEEPKEEEKLGKLQYSLDYDFQNNQLLVGIIQAAELPALDMGGTSDPYVKVFLLPDKKKKFETKVHRKTLNPVFNEQFTFKVPYSELGGKTLVMAVYDFDRFSKHDIIGEFKVPMNTVDFGHVTEEWRDLQSAEKEEQEKLGDICFSLRYVPTAGKLTVVILEAKNLKKMDVGGLSDPYVKIHLMQNGKRLKKKKTTIKKNTLNPYYNESFSFEVPFEQIQKVQVVVTVLDYDKIGKNDAIGKVFVGYNSTGAELRHWSDMLANPRRPIAQWHTLQVEEEVDAMLAVKK
Take B4: the binding result with Botulinum neurotoxin A is given as “no binding (tested: 10 nM)”.
